Measured values taken from the supplement of paper PMC12636428.

Tested on: Saccharomyces cerevisiae
Experiment: transcriptional activation domain activity (GFP:mCherry ratio, weighted mean of sorted bins, harmonized to initial dataset scale) (arbitrary fluorescence ratio units); higher = stronger transcriptional activation
Details: beta-estradiol 1 µM; induction time 4 h
In short: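 In diploid yeast carrying a GFP reporter, barcoded protein tiles fused to an estradiol-inducible synthetic transcription factor were integrated at the URA3 locus. Cultures diluted 1:5 into SC with 1 uM beta-estradiol were kept at 30 °C for 4 hours, then sorted by GFP:mCherry ratio into 8 bins before barcode sequencing. Tiles with under 50 reads were excluded. The activation activity reported here is the read-weighted mean of bin median fluorescence, averaged across barcodes and linearly rescaled to the initial dataset.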

Row | Sequence | transcriptional activation domain activity
1 | MGLWARFFCFVIVCFQITFLYCLFSFSPSFLDLQKTQPLFFTFFFFCSFPSFP | 44200
2 | MGLWARFFCFVIVCFQITFLYCLLSFSPSFLDLQKIQPLFFTFFFFLLLSLFP | 43200
3 | MGLWARFICFVIPLFFHYFPLFSFSFLLNIFPHYIYFFPTFYKSGPLFLCFFM | 50500
4 | MGLWARFICFVIVCFQIISLYCLFSCSLFFLYLQKTQPHFFLLSLFPSSFPPS | 62700
5 | MGLWARFICFVIVCFQITFLYCLFSCSPSFLYFQKTQPLFFTFFFSFPSFLLL | 56800
6 | MGLWARFICFVIVCFQITFLYCLLSFSPSFLDLQKTQPLFFTFFFFLLLSLFP | 60400
7 | MGLWARFICFVIVCLQITSLYCLFSCSPSFLYFKKIQPLFFTFFFFLLSLFPS | 52400
8 | MGLYIFIFSFSFFLFFFFFFFFFFFVLGLVFVSMRTERLLSSQYFFFFWFFSG | 27800
9 | MGMAYGVCCMYFLEPWWVGAISLVRFLGVGVFTLCMYFPSIMIFYFLLFFIIF | 51000
10 | MGMEHLAQPDQPNKKKRRRQALSCTECKRRKIKCDRKQPCSPCTRRGEQAKCQ | 29900
11 | MGMEYIFCLSLSSWGYIFFSFHGFPLFLIFIFSFLARFFLLFFHLFFSFSFFA | 65400
12 | MGNFLYGFCVIFPYNLVYIIICYFGGITQVVNAGFGYMLLLIVLWTHGQLCLS | 38600
13 | MGNGSVLLFLLFLCYGKGLGFFIFTFFFLFYLCIIYFFFPLFYYYLPLLSAGW | 67100
14 | MGNGVRCLLFGKDFSFIFLLYRFSMWFLISPFQLPCWVLVILSCSCSSLSIFG | 65700
15 | MGNKQDGVSGLGFMLISFSCLLLEWLTCAVSSILLSSEFWELSLVCLTLFWFL | 28900
16 | MGNMGTCSFFFFFCWSSFFLCYFCVFPCVLSFQVEGLEAIFLPFTFFPFWFSL | 57300
17 | MGNVQRWAVAIKNVIAVLVVCLRFITDTFIIATSEYPRGGFLVLLHIRMLFML | 81400
18 | MGPISFFFLFWRYYRLYCLFFVFFFFSTGLRWHDTLFHFLSFLLLGLPLLKRS | 82100
19 | MGPMMQQIQQPCGDCRGEGEIINAKDKCKACNARKVTQTRKVLEVHIDRGMKD | 45700
20 | MGPPFFDGFSDGSSDLGSLFLPNGDSANWDLSWSAETFWQLENEYTSLPSFFD | 144000
21 | MGPWICQTQPTSYLILSGLVHSFLKSSQGFISYIFSTLVHMTFLVFLYIHLFR | 58800
22 | MGQVGVFALHKVLYGIIPLFEIQTCSFYPLLVSLWHIFYLLVYIVMFMRLIIL | 72300
23 | MGRDSSLPYFNSPSFWVAFFWSGAGLFFSFFTGFIYFPEQIFFPLFFFLFFED | 58800
24 | MGREHSAPLDSSSKQGAPRRTQRAQLPHNSLCRMGLKTNMKWTHSIRQDKRAE | 35600
25 | MGRELVLFIFFFFLFFFPFFFPLLLPLLLSSVRLVDIFLLKKYYLINLSLAYP | 37400

Row | Sequence | transcriptional activation domain activity
26 | MGRLGTLGLSQEQLDNLRYYKYAAVDRSQLTKYVLRHYWNWAITLFPTWIAPN | 32100
27 | MGRLLLLICFNTSGRLPFLLPLLLFFFFLLFFLYPPLHIFSFSFSLSPSNVPP | 35200
28 | MGRVGGLFIMEGCLCVYRLLLYPSSCVWVSDTRGWLWLWWLWWWVVVVVWGVC | 44600
29 | MGRVVGVGSFYVWICHFFYIFSFFFSPMMNWTGSGLVGCVMALLYFILSFSFS | 46200
30 | MGSCNLPFGHISLARGTLVLIRGWSFFLASQPPYGFIRWILFRSSFYFLCSWR | 55900
31 | MGSDPFGGLNLFSTALFPLYLYCLTLDPPNYSNWLIFLSQHFLFSGLFRVLCF | 56600
32 | MGSFLPFLFFSFCYTFVCYFFSIIALVVFVYFTLAVEFFFFFFGCLRCLLLWL | 57600
33 | MGSGDTFFYWKLFSFSLSLLTRFSPLYFGWPFLKTIPLFMYFFLCRVLPLFLM | 53400
34 | MGSGFCNGVFFYYLFFFFISLCVILSSFLLFFFSLPLFLGGLFFSTFLFLDAR | 58900
35 | MGSLLLFMGIDEGSFLCGFFFSIFFLLLAFFTSYGCFCDKFFFLLYLLLLLRK | 44300
36 | MGSNANKRREDGPKKEQLQKRVLHIRSVARSTKGGKIRSSSAIVVVGNGNGVG | 42400
37 | MGSQLPHLQLSDTDGAGPMKRRRPALACVECRRRKVKCDRKKPCSPCTRIKSL | 69900
38 | MGSTIVFSVVFIWFFLVSFQQLLPFPKGTFFLLFLFPFSLSLPESSCIIFLAF | 51800
39 | MGTLLFVFMYYGWAFFLDYFIWCFVVSLCFWYKVCLAVLLLAFDVYCHLWCMI | 60200
40 | MGTLLLVFMHYGWTFFLDCCLWWYMMSLGFWYKVCLPLLLLDFHVYCHLWYMI | 53600
41 | MGTLYPLVLPWFTGSYFLDIGIDFVFQKDTSYLGYILHTLHAPFLLSCLFLVL | 65000
42 | MGTTGWRTRAIPYGFVFFYFILVMSLFFSSPLLTTTAVFILFYLLFLFSCYSS | 36000
43 | MGVCGVFISFLAWGGCLVLLNVRLHLRGLIFSLSNLFYDTVHVTCIWFFLFRL | 65300
44 | MGVCLCVALFAPFFSLFFFLSPAPYCSGKIWHLSILFLLYHCRRVLPLFILAC | 49600
45 | MGVFILFAFLFFLMFVLLHFFLLLSFFLLSSLMGVYFFPHSMITYMFSFGLRS | 44100
46 | MGVICIFICFAVGLSTIITNLLSWLLLFSIICLICAPIILFVEVPFLLRICPT | 61400
47 | MGVLFCVWSKFMGLHYSLVFFFVYPFSHCFSLLFPFFFFTIMSWYIVFYHTCF | 70300
48 | MGVLFFSFLPWSFRLFFSFFFYFGLFFFFEYDFVLFLVFCVLVIGPVWLLAGC | 60200
49 | MGVLFLLCPCLCVVPLFCIAMQWSIGLYLCLDQRFPVLYTYFFILFSSILFCS | 48300
50 | MGVLLFGFWVCCCTKLLFCHYCFFFFLFLHFFFLATVLYIVNCCMLLLVLLLG | 67700

Row | Sequence | transcriptional activation domain activity
51 | MGVLLVDFLTHWILFLFCSWFMLFSFGRFFGFSGSLLVRFLPDSDLLMFLVLL | 70600
52 | MGVLSFRFLFWSFFFLSVMFLFLFFVFLLGYWFWFWFWLLVWLLVGFCCLVFF | 38500
53 | MGVWFGMAVLFLFLHLGFFLFCYFICLLLDNSFFLSWPLETVRALQMGLQIGG | 36700
54 | MGVYLQKLGWGYRVWRFLFWMGLSLVSFLFFICCFSLSVHTCFFFFWLGRLGW | 27300
55 | MGWFTFAFWYPPHLLYFLFYLPPPPLFPSHSLEFFSFCICNLTMFILSTFFFA | 50200
56 | MGWGAFWRWLVGCSLVLYVFYPLLSYLRCFILVFRFVYIYLPLTDCFLLFISK | 53300
57 | MGWGGASGFSPVVGIFFFTGPLLLFLSTVFLWIQAQFFPMMVCGLFCVFWLSF | 60500
58 | MGWVHLIGRCLILPVHYVVPFFIFFYFAYTSILTTSIGLLGMDLSLRLVFLCS | 51000
59 | MGYCFFLYIYIPFTLLFSNTCRLVGVFLSFYICMIGYSLLWLPNLWLAFFLIN | 37700
60 | MGYGEQRGSFGGRGGRGGSRGGRGGFGGGDRFNQGPPSEVVVVGAFVSACEGE | 52900
61 | MGYQPLFLCFVLSSPCLLLFPVLHILQPASSFSLLCLELFVRWVTYLLLLFSS | 71800
62 | MGYYVVLLTELLISCLCSPSLLYSPFLLICDSFPCSRRVFKLAFILFYILIVT | 43400
63 | MHAFQAGRDMPLVRRRSGGCLESDGGGEERVLRCETEECMSKEGVVSVGAGAD | 35500
64 | MHASFIFLSSTSGVIHTYILYLDLVAYFLLSLGGFVLIIGFWRWGFCCFFLPS | 69100
65 | MHCEGCIQVIYRCYCLLIFLFFYYVCLFCLYILGKQLGLVHVFFYKYWCFFIL | 53100
66 | MHCIVVSCSLFLWFVFCKYLIYFKNAFTDISVFLGFLFGWFLSLLFHLSIVFG | 48500
67 | MHCRDIMRFNEMELAKLRLLLGSNCQALRNTASLLSRNLACSKIIYLSVRLGE | 21000
68 | MHCSLPSGLSFGCQYALVHLLFVRRISIWGLLILQIFLGTRVFYHVFILRVVR | 62700
69 | MHCVLALSLGLLSRVIVFYGCSFRGKLHFMMFWEALYLLLIFMRMLWLLFFIT | 51000
70 | MHDAISFVLHLRLFAHVVGTSLSDGGPVFLALCMLPPLMRHFVSMSSNLWTTA | 70700
71 | MHDTWFPFLAIVLLFYPTILGPGTFSIYFPHSALPPYMSLHLYVHARFLLLLL | 65800
72 | MHEYARVALFGTVGVPLRVFISPAFLRALRSFAPHVIHLVDPILLRMQAHIAL | 48700
73 | MHFAVKVKMQFFFFPSLSFFSSVVFISPPPPFVFLWHMGFLACLLFRSLVVFF | 57000
74 | MHFAVKVKMQLFFFIFSLTLFFFLWYFFFFFPVVYGVFSSGVLGVFFSLFSFF | 66200
